According to the supplement of paper PMC9732359:
± gives the uncertainty stated by the source.

Assay: protein stability index of a GFP-peptide fusion (yeast GPS) (PSI 1-4); higher = more stable; sorted into four equal gates, so the index is relative within each strain
Summary of the method: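 Yeast carrying a pooled library were grown to mid-log phase in leucine-free medium. Each library plasmid expresses Cherry and has a tiled 17-residue yeast protein peptide fused downstream of GFP. Cells were sorted into four equal gates by GFP/Cherry ratio, and plasmids from each gate were PCR-amplified, Illumina-sequenced and assigned to strains by barcode. Summing, across gates, the read frequency times the gate number gave each peptide's protein stability index.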

| Sequence | protein stability index (doa10∆) | protein stability index (pdr5∆) | protein stability index (san1∆) | protein stability index (ubr1∆) |
| --- | --- | --- | --- | --- |
| KESIVLPTVGFDFIKDN [YOR098C/NUP1] | 2.39 ± 0.14 | 2.65 ± 0.11 | 3.05 ± 0.16 | 2.83 ± 0.07 |
| KEIKTNEYVIKTPVFTT [YMR129W/POM152] | 2.1 ± 0.072 | 1.98 ± 0.056 | 1.88 ± 0.084 | 1.94 ± 0.042 |
| VVKGRVEKTLLSDVAFY [RPO31] | 2.16 ± 0.22 | 3.14 ± 0.23 |  | 2.52 ± 0.15 |
| LQRASSKMGAPWCVKPE [ITC1] | 3.14 ± 0.089 | 3.29 ± 0.078 | 3.33 ± 0.055 | 3.27 ± 0.066 |
| FLQPLLLVGLIKTFYWL [NUT1] | 1.8 ± 0.051 | 2.3 ± 0.062 | 1.5 ± 0.089 | 1.8 ± 0.051 |
| RIVNHKTKLWGFKWLNK [LIN1] | 2.87 ± 0.13 | 3.1 ± 0.13 | 2.87 ± 0.3 | 2.88 ± 0.091 |
| NAARKAEASGEAAEEAE [RPS9B] | 3.81 ± 0.29 | 3.39 ± 0.24 |  | 2.89 ± 0.28 |
| DSQDYILSINAIDYEPE [SMC1] | 3.25 ± 0.068 | 3.06 ± 0.058 | 3 ± 0.046 | 3.02 ± 0.038 |
| INELTLLVQKRFKYAPG [RPS3] | 2.83 ± 0.2 | 2.81 ± 0.14 | 2.75 ± 0.12 | 2.96 ± 0.13 |
| GIIITDQSNVQYYLSVL [BRR2] | 3.32 ± 0.2 | 3.44 ± 0.19 | 3.07 ± 0.11 | 3.01 ± 0.13 |
| SASHFEQYTKKINSWDQ [YJL041W/NSP1] | 2.8 ± 0.076 | 3.06 ± 0.061 | 2.69 ± 0.083 | 3.02 ± 0.052 |
| LKTADNRDRSFQLLEPL [PGD1] | 3.29 ± 0.058 | 3.38 ± 0.086 | 3.38 ± 0.039 | 3.18 ± 0.074 |
| NKEYTLVHGIFGAKMSR [SIN4] | 2.75 ± 0.12 | 2.98 ± 0.13 | 3.15 ± 0.19 | 3.09 ± 0.11 |
| FKYRKARLEPGTAIGAI [RPO31] | 2.73 ± 0.16 | 1.99 ± 0.092 | 2.17 ± 0.1 | 2.33 ± 0.057 |
| IIMFVGLQGSGKTTSCT [SRP54] | 2.8 ± 0.067 | 3.04 ± 0.054 | 3.13 ± 0.064 | 3.13 ± 0.046 |
| HDTLNNEIANSIIQSKQ [BRR2] | 2.76 ± 0.051 | 2.95 ± 0.064 | 2.88 ± 0.058 | 2.88 ± 0.052 |
| KCTAEGIKVSLLGIFDD [RPC25] | 2.19 ± 0.077 | 1.69 ± 0.088 | 2.27 ± 0.099 | 2.04 ± 0.061 |
| DGIVVKNAVVRSKFGGD [ARP7] | 3.24 ± 0.26 | 1.92 ± 0.2 | 3.16 ± 0.25 | 3.56 ± 0.2 |
| PVLNLDKLWTLIPEDKR [RPL28] | 1.54 ± 0.056 | 1.45 ± 0.058 | 2.04 ± 0.071 | 1.17 ± 0.036 |
| IAPRPLDLLRPVVRAPT [RPL13A] | 2.55 ± 0.08 | 3.15 ± 0.089 | 2.1 ± 0.12 | 2.7 ± 0.051 |

| Sequence | protein stability index (doa10∆) | protein stability index (pdr5∆) | protein stability index (san1∆) | protein stability index (ubr1∆) |
| --- | --- | --- | --- | --- |
| PGMPNMPGMPNMPGMPK [SRP54] | 3.37 ± 0.15 | 3.22 ± 0.095 | 3.21 ± 0.25 | 3.3 ± 0.071 |
| RETLVKTWEKVTLDFGN [SMC2] | 1.77 ± 0.063 | 1.74 ± 0.14 | 1.83 ± 0.28 | 1.27 ± 0.12 |
| DKKNKRLKFGHRLIATH [SNF2] | 2.02 ± 0.077 | 1.8 ± 0.057 | 1.85 ± 0.091 | 2 ± 0.056 |
| VLAKRMANLSQIYTQRA [SCL1] | 2.52 ± 0.12 | 3 ± 0.27 | 2.34 ± 0.12 | 2.69 ± 0.091 |
| NKENDNVPSTKFNAAPE [SNF12] | 3.38 ± 0.055 | 3.36 ± 0.068 | 3.17 ± 0.06 | 3.14 ± 0.056 |
| IIPQDILDCVVTNSMRQ [YJR042W/NUP85] | 3.01 ± 0.069 | 3.15 ± 0.072 | 3.35 ± 0.044 | 2.94 ± 0.063 |
| NKRLSRGKKGLKKKVVD [RPS1B] |  | 3.44 ± 0.15 | 2.75 ± 0.24 | 3.38 ± 0.14 |
| LKILKQVMEEKLDENNA [PUP2] |  |  | 2.8 ± 0.23 |  |
| KDTPFTIYDGEAVAKYI [PRE5] | 2.69 ± 0.073 | 2.97 ± 0.062 | 3.13 ± 0.089 | 3.12 ± 0.05 |
| DNVDDIGEFNVSMYQNS [YDL088C/ASM4] | 3.41 ± 0.23 | 3.05 ± 0.28 | 2.94 ± 0.22 | 3.19 ± 0.23 |
| RIMSRNFYLKRFISDLL [SWI1] | 2.32 ± 0.058 | 2.37 ± 0.074 | 2.08 ± 0.095 | 1.54 ± 0.034 |
| KERSIVVGRTTRSNPPF [REC8] | 2.7 ± 0.055 | 2.7 ± 0.057 | 2.57 ± 0.081 | 2.65 ± 0.065 |
| QQRGITYLNEVLEKDAA [YGR119C/NUP57] | 3.16 ± 0.093 | 3.27 ± 0.079 | 3.33 ± 0.061 | 3.13 ± 0.09 |
| SSLASQDVDFYKNLDRG [RRP6] | 1.31 ± 0.084 | 1.37 ± 0.067 |  | 1.64 ± 0.088 |
| KLRETLVKIDDLSANQR [SMC1] | 3.11 ± 0.11 | 3.29 ± 0.12 | 3.07 ± 0.11 | 3.09 ± 0.077 |
| MELLTQMDGFDNLGQTK [RPT4] | 3.53 ± 0.09 | 3.56 ± 0.11 | 3.65 ± 0.081 | 3.44 ± 0.079 |
| VGIDTHTATDIYQTLIA [SNF2] | 2.12 ± 0.05 | 2.03 ± 0.048 | 1.85 ± 0.05 | 1.72 ± 0.028 |
| SVFNAELLKLLNDEYNY [YCS4] | 1.76 ± 0.053 | 2.31 ± 0.062 | 1.95 ± 0.095 | 2.47 ± 0.04 |
| RGHVLQFEWHQNSLLTN [SNF2] | 1.93 ± 0.055 | 2.3 ± 0.064 | 3.11 ± 0.056 | 2.6 ± 0.048 |
